{
  "source": "paper doi:10.64898/2025.12.30.697126",
  "target": "SUMO-SRCAP_(521-569) (human)",
  "sequence (Q6ZRS2 521-569)": "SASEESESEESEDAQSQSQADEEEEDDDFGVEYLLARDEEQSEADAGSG",
  "assay": "ITC",
  "data": [
    {"substance": "H2A.Z/H2B dimer, wild type (from UniProt P0C0S5 1-128; P06899 1-126) (complex)", "values": [
      {"measurement": "Kd", "result": 256, "unit": "nM"}
    ]}
  ]
}
